According to IntAct's records for PubMed 29039417:

B1: BBSome complex member BBS2 (Homo sapiens), Q9BXC9 (parent)
chain: MLLPVFTLKLRHKISPRMVAIGRYDGTHPCLAAATQTGKVFIHNPHTRNQHVSASRVFQSPLESDVSLLSINQAVSCLTAGVLNPELGYDALLVGTQTNLLAYDVYNNSDLFYREVADGANAIVLGTLGDISSPLAIIGGNCALQGFNHEGSDLFWTVTGDNVNSLALCDFDGDGKKELLVGSEDFDIRVFKEDEIVAEMTETEIVTSLCPMYGSRFGYALSNGTVGVYDKTSRYWRIKSKNHAMSIHAFDLNSDGVNELITGWSNGKVDARSDRTGEVIFKDNFSSAIAGVVEGDYRMDGHIQLICCSVDGEIRGYLPGTAEMRGNLMDTSAEQDLIRELSQKKQNLLLELRNYEENAKAELASPLNEADGHRGIIPANTRLHTTLSVSLGNETQTAHTELRISTSNDTIIRAVLIFAEGIFTGESHVVHPSIHNLSSSICIPIVPPKDVPVDLHLKAFVGYRSSTQFHVFESTRQLPRFSMYALTSLDPASEPISYVNFTIAERAQRVVVWLGQNFLLPEDTHIQNAPFQVCFTSLRNGGHLHIKIKLSGEITINTDDIDLAGDIIQSMASFFAIEDLQVEADFPVYFEELRKVLVKVDEYHSVHQKLSADMADHSNLIRSLLVGAEDARLMRDMKTMKSRYMELYDLNRDLLNGYKIRCNNHTELLGNLKAVNQAIQRAGRLRVGKPKNQVITACRDAIRSNNINTLFKIMRVGTASS
partner: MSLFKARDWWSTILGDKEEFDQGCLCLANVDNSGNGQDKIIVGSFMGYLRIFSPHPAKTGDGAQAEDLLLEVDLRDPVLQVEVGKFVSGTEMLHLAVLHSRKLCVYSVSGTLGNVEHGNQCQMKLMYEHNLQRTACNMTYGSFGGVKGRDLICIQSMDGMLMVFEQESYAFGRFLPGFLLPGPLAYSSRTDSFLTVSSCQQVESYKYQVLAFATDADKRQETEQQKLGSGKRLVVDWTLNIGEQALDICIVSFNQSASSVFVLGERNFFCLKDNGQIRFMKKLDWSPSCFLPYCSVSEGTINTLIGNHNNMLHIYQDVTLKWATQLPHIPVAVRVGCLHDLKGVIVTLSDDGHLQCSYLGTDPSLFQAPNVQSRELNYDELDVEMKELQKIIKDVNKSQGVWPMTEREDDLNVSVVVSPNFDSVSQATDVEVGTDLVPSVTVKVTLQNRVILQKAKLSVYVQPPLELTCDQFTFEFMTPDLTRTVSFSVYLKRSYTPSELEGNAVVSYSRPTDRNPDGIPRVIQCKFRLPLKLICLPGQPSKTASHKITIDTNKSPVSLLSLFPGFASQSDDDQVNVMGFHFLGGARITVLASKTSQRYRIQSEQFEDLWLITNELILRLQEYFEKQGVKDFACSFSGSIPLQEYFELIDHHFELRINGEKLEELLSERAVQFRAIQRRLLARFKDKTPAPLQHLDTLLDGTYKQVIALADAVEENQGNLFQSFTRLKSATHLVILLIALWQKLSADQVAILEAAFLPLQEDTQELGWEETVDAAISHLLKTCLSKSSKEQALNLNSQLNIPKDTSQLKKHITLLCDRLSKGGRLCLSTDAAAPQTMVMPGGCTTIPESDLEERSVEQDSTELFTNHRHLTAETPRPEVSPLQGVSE

Variants of: B1
Conditions: with pthb1_human BBS9, Q3SYG4

Row | Variant | effect of a mutation on the interaction
1 | L550A | with no effect
2 | Q532E | with no effect
3 | G552K | with no effect
4 | W513A | disrupting interaction strength
5 | L519K | with no effect
6 | Q527K | with no effect
7 | H545A | with no effect
8 | V511K | with no effect
9 | L520K | with no effect
10 | I526E | with no effect
11 | I526K | with no effect
12 | F531E | with no effect
13 | C534E | with no effect
14 | C534K | with no effect
15 | C534A | with no effect
16 | I546E | disrupting interaction strength
17 | I546K | with no effect
18 | D559E | with no effect
19 | V533E | disrupting interaction strength
20 | F535K | disrupting interaction strength
21 | F535A | with no effect
22 | H525K | with no effect

Row | Variant | effect of a mutation on the interaction
23 | H525E | with no effect
24 | N540K | with no effect
25 | N540E | with no effect
26 | H543K | with no effect
27 | H543A | with no effect
28 | E553K | with no effect
29 | E553A | with no effect
30 | A529E | with no effect
31 | V512E | with no effect
32 | V512A | with no effect
33 | V512K | with no effect
34 | F518K | disrupting interaction strength
35 | F518L | disrupting interaction strength
36 | D560K | with no effect
37 | D560E | with no effect
38 | L514K | disrupting interaction strength
39 | L514E | disrupting interaction strength
40 | K549A | with no effect
41 | I567E | with no effect
42 | I567A | with no effect
43 | I567K | with no effect
44 | G542E | with no effect

Row | Variant | effect of a mutation on the interaction
45 | N517L | disrupting interaction strength
46 | N517K | with no effect
47 | K547E | with no effect
48 | D523K | with no effect
49 | D523E | with no effect
50 | S551E | with no effect
51 | S551A | with no effect
52 | D562E | with no effect
53 | D562A | disrupting interaction strength
54 | P521E | with no effect
55 | P521A | with no effect
56 | P521K | with no effect
57 | G515C | disrupting interaction strength
58 | G515R | disrupting interaction strength
59 | G515E | with no effect
60 | I556A | with no effect
61 | I556E | with no effect
62 | I554E | with no effect
63 | I554G | disrupting interaction strength
64 | R539E | with no effect
65 | R539A | with no effect
66 | I548E | with no effect

Row | Variant | effect of a mutation on the interaction
67 | G565A | with no effect
68 | G565K | with no effect
69 | T524A | with no effect
70 | L544K | with no effect
71 | L544A | disrupting interaction strength
72 | P530K | with no effect
73 | I561F | disrupting interaction strength
74 | I561K | with no effect
75 | I561A | with no effect
76 | T555H | disrupting interaction strength
77 | T555K | with no effect
78 | T555A | with no effect
79 | T555P | disrupting interaction strength
80 | T555E | with no effect
81 | L538E | with no effect
82 | L538K | with no effect
83 | G541E | with no effect
84 | N557A | with no effect
85 | L563K | with no effect
86 | E522A | with no effect

Now from value to variant:

Row | effect of a mutation on the interaction | Variant
87 | with no effect | L550E
88 | with no effect | L550K
89 | with no effect | Q516E
90 | with no effect | Q516A
91 | with no effect | Q516K
92 | with no effect | Q532A
93 | with no effect | Q532K
94 | disrupting interaction strength | G552E
95 | with no effect | G552A
96 | disrupting interaction strength | W513K
97 | with no effect | N528E
98 | with no effect | N528K
99 | with no effect | N528A
100 | with no effect | L519A
101 | with no effect | L519E
102 | with no effect | Q527A
103 | with no effect | Q527E
104 | with no effect | I568A
105 | with no effect | H545E
106 | with no effect | H545K
107 | with no effect | A564E
108 | with no effect | A564K

Row | effect of a mutation on the interaction | Variant
109 | with no effect | L520A
110 | with no effect | L520E
111 | with no effect | I526A
112 | with no effect | F531K
113 | with no effect | F531A
114 | with no effect | I546A
115 | with no effect | D559A
116 | with no effect | D559K
117 | with no effect | V533A
118 | with no effect | V533K
119 | disrupting interaction strength | F535E
120 | with no effect | H525A
121 | disrupting interaction strength | N540A
122 | with no effect | T536A
123 | with no effect | T536E
124 | with no effect | T536K
125 | with no effect | S537E
126 | with no effect | S537K
127 | disrupting interaction strength | S537F
128 | with no effect | S537A
129 | with no effect | H543E
130 | with no effect | A529K

Row | effect of a mutation on the interaction | Variant
131 | with no effect | F518A
132 | disrupting interaction strength | F518E
133 | disrupting interaction strength | D560A
134 | with no effect | L514A
135 | with no effect | T558E
136 | with no effect | T558A
137 | with no effect | T558K
138 | with no effect | K549E
139 | with no effect | G542K
140 | with no effect | G542A
141 | with no effect | N517E
142 | with no effect | N517A
143 | with no effect | K547A
144 | with no effect | D523A
145 | with no effect | S551K
146 | with no effect | D566E
147 | with no effect | D566A
148 | with no effect | D566K
149 | disrupting interaction strength | D562V
150 | with no effect | D562K
151 | with no effect | G515A
152 | with no effect | G515K

Row | effect of a mutation on the interaction | Variant
153 | with no effect | I556K
154 | with no effect | I554K
155 | with no effect | I554A
156 | with no effect | R539K
157 | with no effect | I548A
158 | with no effect | I548K
159 | with no effect | G565E
160 | with no effect | T524E
161 | with no effect | T524K
162 | disrupting interaction strength | L544E
163 | disrupting interaction strength | L544S
164 | with no effect | P530E
165 | with no effect | P530A
166 | with no effect | I561E
167 | with no effect | L538A
168 | with no effect | G541K
169 | with no effect | G541A
170 | with no effect | N557K
171 | with no effect | N557E
172 | with no effect | L563E
173 | with no effect | L563A
174 | with no effect | E522K
